Experimental data taken from patent US20240261333A1 (published 2024).
Blank lines part the entries; values can stand above or below the binder they belong to.

Experiments:
Test in all cases: co-IP with anti-FLAG, N-FLAG B3GNT2, mass spectrometry
[1] = target: T1, LGALS7B (human, UniProt P47929 1-136)
T1 construct: also called NP_001035972.1

[2] = target: T2, YBX1 (human, UniProt P67809 2-324)
T2 construct: also called NP_004550.2

[3] = target: T3, PURA (human, UniProt Q00577 2-322)
T3 construct: also called NP_005850.1
T3 sequence (looked up): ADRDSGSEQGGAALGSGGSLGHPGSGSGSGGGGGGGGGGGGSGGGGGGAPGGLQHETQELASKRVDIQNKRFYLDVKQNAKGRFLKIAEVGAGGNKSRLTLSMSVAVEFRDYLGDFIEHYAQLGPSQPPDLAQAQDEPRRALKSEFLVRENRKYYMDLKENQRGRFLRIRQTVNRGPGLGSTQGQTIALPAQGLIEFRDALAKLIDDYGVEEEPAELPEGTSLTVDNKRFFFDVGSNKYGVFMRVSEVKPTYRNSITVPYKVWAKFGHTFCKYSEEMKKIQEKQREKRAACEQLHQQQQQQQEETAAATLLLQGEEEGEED

[4] = target: T4, NAP1L1 (human, UniProt P55209 2-388)
T4 construct: also called NP_001294853.1 (+1)
T4 sequence (looked up): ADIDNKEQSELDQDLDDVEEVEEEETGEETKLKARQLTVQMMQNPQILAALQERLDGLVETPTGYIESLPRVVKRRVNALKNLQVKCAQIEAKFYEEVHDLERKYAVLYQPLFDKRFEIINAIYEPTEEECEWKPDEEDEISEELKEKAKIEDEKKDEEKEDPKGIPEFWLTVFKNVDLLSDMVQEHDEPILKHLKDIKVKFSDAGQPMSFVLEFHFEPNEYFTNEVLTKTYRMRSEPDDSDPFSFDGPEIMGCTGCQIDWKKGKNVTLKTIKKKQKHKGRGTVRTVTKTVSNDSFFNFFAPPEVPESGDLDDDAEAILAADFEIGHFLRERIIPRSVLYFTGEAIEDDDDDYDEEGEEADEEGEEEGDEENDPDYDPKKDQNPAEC

[5] = target: T5, DDX3X (human, UniProt O00571 2-662)
T5 construct: also called NP_001180345.1 (+1)

[6] = target: RPS20 (human, UniProt P60866 2-119)
[7] = target: T6, RBM14 (human, UniProt Q96PK6 1-669)
T6 construct: also called XP_006319.1
T6 sequence (looked up): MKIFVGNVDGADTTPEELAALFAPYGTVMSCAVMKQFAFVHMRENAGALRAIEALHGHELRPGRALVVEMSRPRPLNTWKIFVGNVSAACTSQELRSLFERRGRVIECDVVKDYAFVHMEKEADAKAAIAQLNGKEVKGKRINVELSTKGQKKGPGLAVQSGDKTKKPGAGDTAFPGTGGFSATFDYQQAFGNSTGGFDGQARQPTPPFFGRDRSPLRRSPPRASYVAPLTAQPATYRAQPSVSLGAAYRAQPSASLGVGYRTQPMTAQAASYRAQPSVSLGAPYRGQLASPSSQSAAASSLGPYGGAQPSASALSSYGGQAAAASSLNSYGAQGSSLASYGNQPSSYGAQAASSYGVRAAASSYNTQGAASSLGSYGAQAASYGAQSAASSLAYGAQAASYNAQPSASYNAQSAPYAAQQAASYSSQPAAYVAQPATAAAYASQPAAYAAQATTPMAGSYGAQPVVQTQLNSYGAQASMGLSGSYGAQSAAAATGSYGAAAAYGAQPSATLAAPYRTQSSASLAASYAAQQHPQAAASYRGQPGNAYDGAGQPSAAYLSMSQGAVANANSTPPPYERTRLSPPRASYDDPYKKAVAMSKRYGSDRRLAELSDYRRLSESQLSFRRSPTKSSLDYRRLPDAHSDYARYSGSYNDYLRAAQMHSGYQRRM

T2 sequence (P67809 2-324 limits assumed): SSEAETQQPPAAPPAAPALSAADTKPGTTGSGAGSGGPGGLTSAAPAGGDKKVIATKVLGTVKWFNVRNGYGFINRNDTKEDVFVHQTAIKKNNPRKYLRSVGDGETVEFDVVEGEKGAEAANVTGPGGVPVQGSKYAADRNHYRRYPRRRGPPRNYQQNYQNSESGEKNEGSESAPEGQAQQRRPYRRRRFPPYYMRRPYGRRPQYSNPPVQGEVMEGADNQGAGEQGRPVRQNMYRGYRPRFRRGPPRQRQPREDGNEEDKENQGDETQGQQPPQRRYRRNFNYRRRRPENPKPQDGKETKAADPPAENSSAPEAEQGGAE
T5 sequence (O00571 2-662 limits assumed): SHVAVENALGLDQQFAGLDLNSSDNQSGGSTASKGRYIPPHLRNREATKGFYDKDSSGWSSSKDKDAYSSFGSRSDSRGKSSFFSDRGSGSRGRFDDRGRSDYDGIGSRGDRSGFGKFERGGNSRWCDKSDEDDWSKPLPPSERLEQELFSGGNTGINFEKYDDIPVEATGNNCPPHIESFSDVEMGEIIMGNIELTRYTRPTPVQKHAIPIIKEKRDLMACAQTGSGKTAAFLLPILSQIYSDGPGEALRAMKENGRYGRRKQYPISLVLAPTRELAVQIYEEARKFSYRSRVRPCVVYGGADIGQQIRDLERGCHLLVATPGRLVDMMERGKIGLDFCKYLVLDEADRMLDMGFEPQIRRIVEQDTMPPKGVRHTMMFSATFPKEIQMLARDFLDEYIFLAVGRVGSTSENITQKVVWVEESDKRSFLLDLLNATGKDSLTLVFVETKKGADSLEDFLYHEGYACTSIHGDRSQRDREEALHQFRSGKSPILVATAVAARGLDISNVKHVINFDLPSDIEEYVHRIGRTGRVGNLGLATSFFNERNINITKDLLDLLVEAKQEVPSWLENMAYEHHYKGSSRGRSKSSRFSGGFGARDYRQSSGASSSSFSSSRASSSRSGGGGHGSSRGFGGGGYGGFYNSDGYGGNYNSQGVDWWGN
T1 sequence (P47929 whole entry): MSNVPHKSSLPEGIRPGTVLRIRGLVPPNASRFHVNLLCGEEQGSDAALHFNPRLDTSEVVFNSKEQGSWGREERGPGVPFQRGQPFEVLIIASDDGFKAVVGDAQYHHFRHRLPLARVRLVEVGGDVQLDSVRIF

co-IP mass spectrometry count [1]: 7 | co-IP mass spectrometry count [2]: 2
B1: N-terminal FLAG tagged B3GNT2 (enzyme, human, UniProt Q9NY97 1-397, looked up)
chain: MSVGRRRIKLLGILMMANVFIYFIMEVSKSSSQEKNGKGEVIIPKEKFWKISTPPEAYWNREQEKLNRQYNPILSMLTNQTGEAGRLSNISHLNYCEPDLRVTSVVTGFNNLPDRFKDFLLYLRCRNYSLLIDQPDKCAKKPFLLLAIKSLTPHFARRQAIRESWGQESNAGNQTVVRVFLLGQTPPEDNHPDLSDMLKFESEKHQDILMWNYRDTFFNLSLKEVLFLRWVSTSCPDTEFVFKGDDDVFVNTHHILNYLNSLSKTKAKDLFIGDVIHNAGPHRDKKLKYYIPEVVYSGLYPPYAGGGGFLYSGHLALRLYHITDQVHLYPIDDVYTGMCLQKLGLVPEKHKGFRTFDIEEKNKNNICSYVDLMLVHSRKPQEMIDIWSQLQSAHLKC
notes: FLAG-tagged ORF overexpressed in cells; pulled down from lysate with mouse anti-FLAG; also called N-FLAG B3GNT2; N-term FLAG; not shown: N-terminal FLAG tag

co-IP/MS count, N-term FLAG [3]: 0 | co-IP/MS count, N-term FLAG [4]: 0 | co-IP/MS count, N-term FLAG [5]: 18 | co-IP/MS count, N-term FLAG [6]: 4 | co-IP/MS count, N-term FLAG [7]: 3
B2: N-terminal FLAG tagged B3GNT2 (enzyme, human, UniProt Q9NY97 1-397, looked up)
chain: B1 chain
notes: FLAG-tagged ORF overexpressed in A375 cells; pulled down from the lysate with mouse anti-FLAG; also called N-FLAG B3GNT2; N-term FLAG; not shown: N-terminal FLAG tag
